Test results from patent US20260055441A1, “A PCR-ELISA ANALOGOUS ANTIBODY-FREE METHOD FOR DETECTING A TARGET NUCLEIC ACID IN A SAMPLE” (UNIVERSITÄT HEIDELBERG, priority 2022, published 2026).
“And” between values parts separate entries of the source, which are not always exact repeats. Equal values may be shown once. No end group written: not given here.

How the values were obtained:
latent papain P13 [1] = molecular target: T1, latent papain P13 (Carica papaya, UniProt P00784); experiment: Latent papain reactivation assay with thiol activators at 10 μM, rates normalized to 10 μM cysteine (FIG. 18); format: biochemical; conditions: activator 10 μM, latent papain 1 nM, Z-Phe-Arg-AMC 2 μM; for reaction rate compared to L-cysteine: pH 7; for normalized ratio rate/rate 10 μM cysteine of substrate hydrolysis after reactivation of latent papain: well buffer pH 7, no TCEP
T1 construct: purchased Sigma Aldrich (Munich, Germany); host or cells: Papaya latex (natural source)
T1 sequence (P00784 134-345): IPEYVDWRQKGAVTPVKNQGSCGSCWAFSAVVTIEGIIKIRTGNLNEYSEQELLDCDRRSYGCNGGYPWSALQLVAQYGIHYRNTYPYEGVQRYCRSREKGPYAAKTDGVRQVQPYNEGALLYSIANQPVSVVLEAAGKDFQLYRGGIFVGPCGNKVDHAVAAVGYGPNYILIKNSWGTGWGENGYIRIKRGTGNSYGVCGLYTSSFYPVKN
Procedure: All following described fluorometric assays (Examples 1-3) are based on the reaction of reversibly inactivated papain (latent papain) with an activator containing either sulfur or selenium (with the exception of TCEP). Different latent papain forms, buffer compositions and activators in various concentrations were compared. Papain was hereby transferred in buffer (standard well buffer consisted of 0.1 M phosphate pH 7, 4 mM EDTA, 0.01% Brij35 and if activators contained diselenides, 1 μM TCEP) mixed with activator and substrate inside 96 well plates (without prior washing of the plates). After reactivation, active papain hydrolyses the substrate Z-Phe-Arg-AMC (2 μM) and the resulting fluorescence was tracked every minute for 2 h. The slopes of the corresponding curves were calculated for the linear portion within the first 30 minutes and the resulting reaction rates were directly compared. Resulting reaction rates directly reflect reactivation efficiencies of each activator under each reaction condition. […] After addition of activator a fraction of latent papain is immediately reactivated in rather non-stoichiometric proportions. Complete reactivation can generally only be achieved with great excess of activator. The partial reactivation with smaller activator amounts appears almost instantaneously because the resulting reaction curve show linear progression from the start except for very low activator concentrations. After reactivation, all different latent papain forms result in the same active enzyme. If different latent papain forms show different reaction rates in identical activation assays, the efficiency of reactivation with the applied activator can be deduced. The same applies for reactivation of one latent papain form with different activators or reaction conditions.
Several thiol compounds and cysteine containing peptide activators (see Example 4.1) were compared for their potential to reactivate latent papain. To this end, the thiol compounds and cysteine containing peptide activators were utilized in reactivation assays (see Example 5, 5.2.2.2, fluorometric method 2) of papain P13 (see Example 1, 1.2) with an activator concentration of 10 μM. For thiols not completely soluble in phosphate buffer pH 7 at high concentrations, the 1 mM stock solution was prepared in DMSO, resulting in 1% DMSO in the reaction mixture. In order to normalize the observed reaction rates between assays, a 10 μM cysteine sample was additionally measured in every assay and reaction rates of the examined thiols were divided through the reaction rates produced by the 10 μM cysteine standard. Additionally, a measurement with 1 mM cysteine was performed in order to achieve maximal papain activation and therefore the maximal reaction rate within the confines of the assay. The resulting normalized rates are compared in FIG. 18.
Different assays of reactivating latent papain in solution were conducted in the course of this work. Various buffer compositions, supplements, 96 well plates, substrates, activators, concentrations as well as different latent papain forms were compared. In order to get an overview of all experiments, a standard method is described in the following and variations of this method are subsequently defined. First, the well buffer was prepared (0.1 M phosphate buffer pH 7, 4 mM EDTA, 0.01% Brij35). A 1 mM TCEP solution was prepared with 3 mM NaOH in 0.1 M Tris-HCl buffer pH 8. Papain substrate (Z-Phe-Arg-AMC or Suc-Leu-Leu-Val-Tyr-AMC) was prepared as a 200 μM solution in water and transferred equally to a PCR strip. Three serial dilutions of the activating agent with well buffer were used in the different experiments and the corresponding pipetting schemes are shown in Table 9. Papain was diluted to 0.1 μM with well buffer and transferred equally to a PCR strip. After preparation of the abovementioned solutions, TCEP (1 mM solution) was added to well buffer to yield a final TCEP concentration of 1.1 μM. […]

latent papain P13 [2] = molecular target: T1, latent papain P13; experiment: Screening of peptide-based papain activators, rates normalized to cysteine ethyl ester (FIG. 19, FIG. 20); format: biochemical; conditions: for normalized ratio rate/rate cysteine ethyl ester (CysEE): activator 50 nM, latent papain P13 1 nM, substrate 2 μM, pH 7
Procedure: L-Cysteine ethyl ester was utilized in identical peptide concentrations as a standard in order to calculate normalized reaction rates for each synthesized peptide.
[…] The assays were conducted in well buffer with 1 nM latent papain P13. In order to give a clear overview, only the normalized rates for activator concentrations of 50 nM are depicted and compared.
Additionally, 1 μM TCEP was added to each well of the cysteine concentration series in order to examine the influence of TCEP on reaction rates of thiols.
Different assays of reactivating latent papain in solution were conducted in the course of this work. Various buffer compositions, supplements, 96 well plates, substrates, activators, concentrations as well as different latent papain forms were compared. In order to get an overview of all experiments, a standard method is described in the following and variations of this method are subsequently defined. First, the well buffer was prepared (0.1 M phosphate buffer pH 7, 4 mM EDTA, 0.01% Brij35). A 1 mM TCEP solution was prepared with 3 mM NaOH in 0.1 M Tris-HCl buffer pH 8. Papain substrate (Z-Phe-Arg-AMC or Suc-Leu-Leu-Val-Tyr-AMC) was prepared as a 200 μM solution in water and transferred equally to a PCR strip. Three serial dilutions of the activating agent with well buffer were used in the different experiments and the corresponding pipetting schemes are shown in Table 9. Papain was diluted to 0.1 μM with well buffer and transferred equally to a PCR strip. […] 342.4 μL of TCEP containing well buffer was transferred to each well, followed by 3.8 μL papain solution. After mixing, 30 μL of the prepared activator concentrations (see Table 9) were added and mixed. In the last step, 3.8 μL of the substrate solution was added and mixed, to yield a final well composition of 0.1 M phosphate buffer pH 7, 1 nM papain, 2 μM substrate, activator (see Table 9), 4 mM EDTA, 0.01% Brij35 and 1 μM TCEP. For experiments with only one activator concentration of 10 μM, the transferred well buffer for each well was 368.6 μL, followed by 3.8 μL of papain, substrate and activator (1 mM in well buffer) respectively.

[3] = molecular target: T2, latent papain, reversibly inactivated with S-methyl methanethiosulfonate (-S-S-CH3) (Carica papaya, UniProt P00784 134-345, catalytic Cys25 blocked as mixed disulfide -S-S-CH3); experiment: cell-based or functional assay
T2 sequence: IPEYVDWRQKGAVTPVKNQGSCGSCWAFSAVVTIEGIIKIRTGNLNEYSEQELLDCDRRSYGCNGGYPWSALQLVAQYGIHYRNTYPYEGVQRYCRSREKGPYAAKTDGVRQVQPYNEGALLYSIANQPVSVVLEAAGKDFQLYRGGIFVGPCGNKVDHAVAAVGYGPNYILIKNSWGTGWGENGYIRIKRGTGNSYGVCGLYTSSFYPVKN

[4] = molecular target: T3, dU-triazole-PEG3-ULR dimer (21) (not fully specified)
T3 chain: ULR

[5] = FIG. 20, concentration series 50 nM-10 μM

OCCS [2-ME, 2-Mercaptoethan-1-ol]
reaction rate compared to L-cysteine (latent papain P13 [1]): 70%

CC(=O)Nc1ccc(S)cc1 [4-acetamidothiophenol, 4-Acetamidothiophenol]
activator efficiency, in words (latent papain P13 [2]; [5]): more potent activators compared to the tripeptide
rate relative to the tripeptide H2N-CLR-CONH2 (latent papain P13 [2]; concentration series 50 nM-10 μM (FIG. 20), selenocysteine prepared with TCEP): five times as efficient

SCc1ccc(Cl)cc1 [4-chlorobenzyl mercaptan, 4-Chlorobenzyl mercaptan]
normalized ratio rate/rate 10 μM cysteine of substrate hydrolysis after reactivation of latent papain (latent papain P13 [1]): 0.83

Nc1nnc(S)s1 [5-Amino-1,3,4-thiadiazole-2-thiol]
normalized ratio rate/rate 10 μM cysteine of substrate hydrolysis after reactivation of latent papain (latent papain P13 [1]): almost no papain activation potential at all

N[C@H](CS)C(=O)O [D-cysteine]
reaction rate compared to L-cysteine (latent papain P13 [1]): 70%

N[C@@H](CCS)C(=O)O [L-homocysteine, L-Homocysteine]
normalized ratio rate/rate 10 μM cysteine of substrate hydrolysis after reactivation of latent papain (latent papain P13 [1]): lower reaction rates

CC(C)(S)[C@H](N)C(=O)O [L-penicillamine, L-Penicillamine]
normalized ratio rate/rate 10 μM cysteine of substrate hydrolysis after reactivation of latent papain (latent papain P13 [1]): lower reaction rates

O=C(O)CCP(CCC(=O)O)CCC(=O)O [TCEP, Tris(2-carboxyethyl)phosphine]
activator efficiency, in words (latent papain P13 [2]; [5]): very little efficiency

Sc1ccccc1 [thiophenol, Thiophenol]
normalized ratio rate/rate 10 μM cysteine of substrate hydrolysis after reactivation of latent papain (latent papain P13 [1]): 4.86

H2N-C-C-R-G-CONH2 (H-CCRG-NH2; cysteine pairing not given here) [H2N—CCRG-CONH2]
normalized ratio rate/rate cysteine ethyl ester (CysEE) (latent papain P13 [2]): most potent activators

H2N-C-F-R-CONH2 (H-Cys-Phe-Arg-NH2) [H2N—CFR—CONH2]
normalized ratio rate/rate 10 μM cysteine of substrate hydrolysis after reactivation of latent papain (latent papain P13 [1]): more than twice as high

H2N-C-L-C-G-CONH2 (H-CLCG-NH2; cysteine pairing not given here) [H2N—CLCG-CONH2]
normalized ratio rate/rate cysteine ethyl ester (CysEE) (latent papain P13 [2]): most potent activators

H2N-C-L-R-CONH2 (H-Cys-Leu-Arg-NH2) [H2N—CLR—CONH2]
normalized ratio rate/rate 10 μM cysteine of substrate hydrolysis after reactivation of latent papain (latent papain P13 [1]): more than twice as high
potency relative to (L-)cysteine (latent papain P13 [2]; [5]): almost four times as efficient
normalized ratio rate/rate cysteine ethyl ester (CysEE) (latent papain P13 [2]): 1.8 and 1.81

H2N-C-L-R-G-CONH2 (H-CLRG-NH2) [H2N—CLRG-CONH2]
normalized ratio rate/rate cysteine ethyl ester (CysEE) (latent papain P13 [2]): 1.29

H2N-C-L-R-G-COOH (H-CLRG-OH) [H2N—CLRG-COOH]
normalized ratio rate/rate cysteine ethyl ester (CysEE) (latent papain P13 [2]): 0.51

H-Cys-Leu-Arg-NH2 [H2N-CLR-CONH2]
normalized ratio rate/rate cysteine ethyl ester after reactivation of latent papain P13 (1 nM), activator 50 nM [3]: 1.81 rate/rate cysteine ethyl ester
reaction rate after reactivation of latent papain P13 (1 nM), concentration series 50 nM-10 uM, against free cysteine [3]: ~4 fold of free cysteine

H-GLCLRG-OH (not fully specified) [H2N-G-L-C-L-R-G-COOH]
normalized ratio rate/rate cysteine ethyl ester after reactivation of latent papain P13 (1 nM), activator 50 nM [3]: < 1 rate/rate cysteine ethyl ester

H-CLRG-NH2 [H2N-CLRG-CONH2]
normalized ratio rate/rate cysteine ethyl ester after reactivation of latent papain P13 (1 nM), activator 50 nM [3]: 1.29 rate/rate cysteine ethyl ester

H-CLRG-OH [H2N-CLRG-COOH]
normalized ratio rate/rate cysteine ethyl ester after reactivation of latent papain P13 (1 nM), activator 50 nM [3]: 0.51 rate/rate cysteine ethyl ester

H-CLRCG-OH (cysteine pairing not given here) [H2N-CLRCG-COOH]
normalized ratio rate/rate cysteine ethyl ester after reactivation of latent papain P13 (1 nM), activator 50 nM [3]: 0.99 rate/rate cysteine ethyl ester

H-FVCEKG-OH [H2N-F-V-C-E-K-G-COOH]
normalized ratio rate/rate cysteine ethyl ester after reactivation of latent papain P13 (1 nM), activator 50 nM [3]: < 1 rate/rate cysteine ethyl ester

H-EGCGRG-OH [H2N-E-G-C-G-R-G-COOH]
normalized ratio rate/rate cysteine ethyl ester after reactivation of latent papain P13 (1 nM), activator 50 nM [3]: < 1 rate/rate cysteine ethyl ester

H-SECLRG-OH [H2N-S-E-C-L-R-G-COOH]
normalized ratio rate/rate cysteine ethyl ester after reactivation of latent papain P13 (1 nM), activator 50 nM [3]: < 1 rate/rate cysteine ethyl ester

H-GKCLRG-OH [H2N-G-K-C-L-R-G-COOH]
normalized ratio rate/rate cysteine ethyl ester after reactivation of latent papain P13 (1 nM), activator 50 nM [3]: < 1 rate/rate cysteine ethyl ester

H-GGCGGG-OH [H2N-G-G-C-G-G-G-COOH]
normalized ratio rate/rate cysteine ethyl ester after reactivation of latent papain P13 (1 nM), activator 50 nM [3]: < 1 rate/rate cysteine ethyl ester

B1: latent papain P23 (-S-S-(CH2)2-NH2) (protein)
chain: IPEYVDWRQKGAVTPVKNQGSCGSCWAFSAVVTIEGIIKIRTGNLNEYSEQELLDCDRRSYGCNGGYPWSALQLVAQYGIHYRNTYPYEGVQRYCRSREKGPYAAKTDGVRQVQPYNEGALLYSIANQPVSVVLEAAGKDFQLYRGGIFVGPCGNKVDHAVAAVGYGPNYILIKNSWGTGWGENGYIRIKRGTGNSYGVCGLYTSSFYPVKN
reaction rate of Z-Phe-Arg-AMC hydrolysis after reactivation of latent papain (1 nM) with activator 1-15 nM [4]: papain P23, containing the positively charged amino group, was found to be by far the most efficiently reactivated latent papain form

B2: dU-triazole-PEG3-ULR dimer (21) (peptide)
peptide: X-Leu-Arg-NH2
modifications: not fully specified (residue 1, N-terminus); printed as dU-triazole-PEG3-ULR; also: diselenide dimer
normalized ratio rate/rate blank, P20 against P28 [3]: 2 fold of the normalized rate of P28
normalized ratio rate/rate blank, activator at half equimolar concentration of papain (printed 500 µM; papain 1 nM) [3]: 33 fold of the background activity
normalized ratio rate/rate blank, activator at the lowest concentration (printed 50 µM; series starts at 50 pM) [3]: 4 fold of the background activity
reaction rate after reactivation of latent papain (1 nM), activator 10 nM, against DTBA (9) [3]: 23 fold of the rate with DTBA (9)
reaction rate after reactivation of latent papain (1 nM), activator 10 nM, against DTT [3]: 159 fold of the rate with DTT
reaction rate after reactivation of latent papain (1 nM), activator 50 nM, against DTBA (9) [3]: 9 fold of the rate with DTBA (9)
reaction rate after reactivation of latent papain (1 nM), activator 50 nM, against DTT [3]: 128 fold of the rate with DTT
